Results: PMC9278869

Target: Flag-ACKR3-RlucII (human) (UniProt P25106)
Details: scale: log EC50

Chain of Flag-ACKR3-RlucII (human) (P25106 whole entry): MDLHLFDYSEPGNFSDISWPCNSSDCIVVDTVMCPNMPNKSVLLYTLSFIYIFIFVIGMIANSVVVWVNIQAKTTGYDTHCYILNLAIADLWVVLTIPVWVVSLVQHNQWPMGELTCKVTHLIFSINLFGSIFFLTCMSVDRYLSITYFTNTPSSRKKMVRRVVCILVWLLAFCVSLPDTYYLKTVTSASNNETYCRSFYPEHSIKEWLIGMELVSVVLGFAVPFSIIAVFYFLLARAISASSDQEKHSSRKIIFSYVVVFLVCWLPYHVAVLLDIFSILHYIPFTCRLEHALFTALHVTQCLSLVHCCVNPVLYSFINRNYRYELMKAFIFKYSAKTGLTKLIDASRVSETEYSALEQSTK

- log EC50 of GFP10–β-arrestin 2 recruitment to ACKR3-RlucII (BRET) as a function of CXCL12WT, with 2 μM CID25: -8.89
- log EC50 of GFP10–β-arrestin 2 recruitment to ACKR3-RlucII (BRET) as a function of CXCL12WT, without CID25: -8.87
Substance: wild-type CXCL12 (CXCL12WT) (from UniProt P48061 22-93) (ligand)
